Target: Arp2/3 complex (bovine) (UniProt A7MB62)
Assay: ITC

Row | Substance | Kd | fold lower affinity than N-WASP WCA, site-1 | fold lower affinity than N-WASP WCA, site-2 | stoichiometry N | Kd site-1 | Kd site-2
1 | Human GMFγ (from UniProt O60234 1-142) (natural protein) | 200 nM |  |  |  |  | 
2 | WCA_(WAVE) (domain or fragment) |  | 2 fold | 6 fold | 2 |  | 
3 | WCA_(N-WASP) (domain or fragment) |  |  |  | 2 | 20 nM | 182 nM

Reference: publication PMC4364448
